In publication PMC10847504:

Target: CNOT1 of the CCR4-NOT complex, endogenous
Test: GFP-trap pull-down, Western blot quantification
Settings: lentivirally transduced neurons, read off a plot
[1] = NMDA 3 min, 10 min incubation after NMDA washout, parent: est. 1.4
[2] = vehicle (no NMDA) 3 min, 10 min incubation after washout, parent: est. 0.94

| ratio to parent [1] | ratio to parent [2] | Substance |
| --- | --- | --- |
| 1.3 | 1.3 | GFP-Ago2(WT) (from UniProt Q9UKV8) S387D |
| 0.81 | 0.75 | GFP-Ago2(WT) (from UniProt Q9UKV8) S387A |
